The sequences below were run on Escherichia coli TOP10 (assay: shrunken log2 fold change of peptide-encoding DNA abundance (4.5 h post-induction vs induction); higher = less antimicrobial activity (less host growth inhibition)). Details: time post-induction: 4.5 h; library: site-saturation at positions 5, 18, 19, 20.
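Note: peptides expressed intracellularly from a pBAD plasmid library in pooled LB shake-flask culture, induced with 0.3% L-arabinose, DNA abundance read by NGS, three biological replicates, DESeq2 with apeglm shrinkage.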

Sequence	shrunken log2 fold change
RRIRARPPRLPRPRPRPTEKPRP	0.413
RRIRVRPPRLPRPRPRPNHMPRP	-0.0124
RRIRHRPPRLPRPRPRPGDKPRP	-0.0257
RRIRMRPPRLPRPRPRPVKKPRP	0.0481
RRIRWRPPRLPRPRPRPLHNPRP	-0.116
RRIRYRPPRLPRPRPRPICTPRP	-0.376
RRIRYRPPRLPRPRPRPMLHPRP	-0.404
RRIRMRPPRLPRPRPRPSEHPRP	0.0665
RRIRPRPPRLPRPRPRPIQLPRP	-0.0767
RRIRYRPPRLPRPRPRPANGPRP	-0.6
RRIRARPPRLPRPRPRPGTQPRP	0.316
RRIRSRPPRLPRPRPRPDYAPRP	-0.0222
RRIRGRPPRLPRPRPRPPHEPRP	0.773
RRIRQRPPRLPRPRPRPTLHPRP	0.0326
RRIRARPPRLPRPRPRPQTLPRP	0.0847
RRIRNRPPRLPRPRPRPYYKPRP	-1.46
RRIRHRPPRLPRPRPRPNKAPRP	0.147
RRIRVRPPRLPRPRPRPKLPPRP	-0.266
RRIRKRPPRLPRPRPRPLLLPRP	-0.105
RRIRTRPPRLPRPRPRPTSIPRP	-0.195

Sequence	shrunken log2 fold change
RRIRFRPPRLPRPRPRPNRVPRP	-0.0261
RRIRVRPPRLPRPRPRPCHIPRP	-0.312
RRIRIRPPRLPRPRPRPQPIPRP	-0.00642
RRIRWRPPRLPRPRPRPAFMPRP	0.0849
RRIRYRPPRLPRPRPRPAREPRP	0.00627
RRIRNRPPRLPRPRPRPQDMPRP	0.0124
RRIRMRPPRLPRPRPRPAVPPRP	0.328
RRIRWRPPRLPRPRPRPDAMPRP	0.393
RRIRFRPPRLPRPRPRPANVPRP	-0.246
RRIRRRPPRLPRPRPRPFYQPRP	-0.46
RRIRMRPPRLPRPRPRPQLRPRP	0.357
RRIRFRPPRLPRPRPRPENMPRP	-0.158
RRIRNRPPRLPRPRPRPMWAPRP	-0.0203
RRIRSRPPRLPRPRPRPSEPPRP	-0.167
RRIRERPPRLPRPRPRPYMGPRP	-1.01
RRIRQRPPRLPRPRPRPSSEPRP	0.0507
RRIRPRPPRLPRPRPRPWTIPRP	-0.117
RRIRFRPPRLPRPRPRPLREPRP	0.618
RRIRPRPPRLPRPRPRPWYSPRP	-0.22
RRIRSRPPRLPRPRPRPTYPPRP	-0.0945

Sequence	shrunken log2 fold change
RRIRHRPPRLPRPRPRPCENPRP	-0.0381
RRIRYRPPRLPRPRPRPFYGPRP	0.0392
RRIRIRPPRLPRPRPRPSDQPRP	-0.528
RRIRERPPRLPRPRPRPHLKPRP	-0.268
RRIRMRPPRLPRPRPRPWDSPRP	-0.152
RRIRFRPPRLPRPRPRPSQAPRP	-0.0595
RRIRIRPPRLPRPRPRPIWFPRP	-0.164
RRIRFRPPRLPRPRPRPMMGPRP	-0.0671
RRIRHRPPRLPRPRPRPFQDPRP	0.0239
RRIRHRPPRLPRPRPRPYGTPRP	-1.41
RRIRHRPPRLPRPRPRPDYYPRP	-0.622
RRIRSRPPRLPRPRPRPIMHPRP	-0.455
RRIRMRPPRLPRPRPRPGYNPRP	-0.282
RRIRWRPPRLPRPRPRPRNDPRP	0.126
RRIRDRPPRLPRPRPRPRKFPRP	-0.0848
RRIRNRPPRLPRPRPRPPRDPRP	0.499
RRIRMRPPRLPRPRPRPHDEPRP	-0.0018
RRIRPRPPRLPRPRPRPKYLPRP	-0.0768
RRIRCRPPRLPRPRPRPEDSPRP	0.00322
RRIRVRPPRLPRPRPRPNAMPRP	-0.234

Source: the supplement of paper PMC9112550, “Optimization of the antimicrobial peptide Bac7 by deep mutational scanning” (BMC Biology, 2022)
